Each block holds one substance with its values, some of them ahead of it.
What was measured:
[1] = target: Fc gamma receptors of NK cells; experiment: cytofluorometry, NK cells, 10 µg/ml, 30 min at 37 °C
[2] = target: Fc gamma receptors of human macrophages; experiment: cytofluorometry, human macrophages with 5 µg/ml hybrid for 2 h at 37 °C, anti-Fc-FITC
[3] = target: Fc gamma receptors of human macrophages; experiment: cytofluorometry, human macrophages with 5 µg/ml hybrid for 20 h at 37 °C, anti-Fc-FITC
[4] = target: Fc gamma receptors of NK cells; experiment: cytofluorometry, NK cells, 48 h at 37 °C
[5] = target: Fc gamma receptors of NK cells; experiment: cytofluorometry, NK cells, 24 h at 37 °C
[6] = target: Fc gamma receptors of NK cells; experiment: cytofluorometry, NK cells, 30 min at 37 °C
[7] = target: Fc gamma receptors of NK cells; experiment: cytofluorometry, NK cells, 10 µg/ml, no competing IgG (same values as Table 9)
[8] = target: Fc gamma receptors of NK cells; experiment: competition, cytofluorometry on NK cells; human IgG at 10000 µg/ml against FcSDHFSTIE-N3-DBCO-A647 at 10 µg/ml
[9] = target: Fc gamma receptors of NK cells; experiment: competition, cytofluorometry on NK cells; human IgG at 1000 µg/ml against FcSDHFSTIE-N3-DBCO-A647 at 10 µg/ml
[10] = target: Fc gamma receptors of NK cells; experiment: competition, cytofluorometry on NK cells; human IgG at 1 µg/ml against FcSDHFSTIE-N3-DBCO-A647 at 10 µg/ml
[11] = target: Fc gamma receptors of NK cells; experiment: competition, cytofluorometry on NK cells; human IgG at 100 µg/ml against FcSDHFSTIE-N3-DBCO-A647 at 10 µg/ml
[12] = target: Fc gamma receptors of NK cells; experiment: competition, cytofluorometry on NK cells; human IgG at 10 µg/ml against FcSDHFSTIE-N3-DBCO-A647 at 10 µg/ml

Substance: FcLALAPG-N3-DBCO-A647 (from UniProt P01857 104-330)
MFI [1]: 450

Substance: FcSDHFSTIE-N3-DBCO-A647 (from UniProt P01857 104-330)
MFI [7]: 38500 | MFI [1]: 38500

Substance: FcSDHFSTIE-N3-DBCO-β60-74Cit (from UniProt P01857 104-330)
fluorescence (Macrophages) [2]: 1330 | fluorescence (Macrophages) [3]: 1460

Substance: FcWT-N3-DBCO-β60-74Cit (from UniProt P01857 104-330)
fluorescence (Macrophages) [2]: 808 | fluorescence (Macrophages) [3]: 1000

Substance: human IgG (antibody)
MFI of FcSDHFSTIE-N3-DBCO-A647 with competing IgG [8]: 20500 | RATIO of FcSDHFSTIE-N3-DBCO-A647 with competing IgG [8]: 96.6 | MFI of FcSDHFSTIE-N3-DBCO-A647 with competing IgG [9]: 29500 | RATIO of FcSDHFSTIE-N3-DBCO-A647 with competing IgG [9]: 139 | MFI of FcSDHFSTIE-N3-DBCO-A647 with competing IgG [10]: 37900 | RATIO of FcSDHFSTIE-N3-DBCO-A647 with competing IgG [10]: 179 | MFI of FcSDHFSTIE-N3-DBCO-A647 with competing IgG [11]: 36300 | RATIO of FcSDHFSTIE-N3-DBCO-A647 with competing IgG [11]: 171 | MFI of FcSDHFSTIE-N3-DBCO-A647 with competing IgG [12]: 38800 | RATIO of FcSDHFSTIE-N3-DBCO-A647 with competing IgG [12]: 183

The remaining lines, values ahead:

fluorescence (Macrophages) [2]: 502 | fluorescence (Macrophages) [3]: 404
Substance: FcLALAPG-N3-DBCO-β60-74Cit (from UniProt P01857 104-330)

MFI [4]: 1710 | MFI [5]: 2350 | MFI [6]: 2970
Substance: FcSDHFSTIE-N3-DBCO-A488 (from UniProt P01857 104-330)

MFI [4]: 4340 | MFI [5]: 4090 | MFI [6]: 4590
Substance: FcSDHFSTIE-N3-DBCO-PEG3-β60-74cit-lysineA488 (from UniProt P01857 104-330)
